This is an account of results in PMC6333238, “The biosynthetic implications of late-stage condensation domain selectivity during glycopeptide antibiotic biosynthesis” (Chemical Science, 2018).

The data set concerns T1, N[C@H](C(=O)O)c1cc(O)cc(O)c1.
T1 construct: full-length final NRPS module C-A-PCP-X-TE, MBP fusion (pET-MBP-1c), Ni-NTA and SEC, E. coli, co-expressed with Tcp17; holo form (PCP loaded with phosphopantetheine by Sfp R4-4); with MbtH-like protein Tcp17
The data set can be described thus: coupled PPi-release A-domain assay (PPi-PFK/aldolase/TPI/GDH, NADH). Particulars: holo form, 0.5 mM ATP, 1 mM MgCl2, pH 7.4, 0.1 mM EDTA, enzyme 1 μM. The data set is classed as biochemical, Actinoplanes teichomyceticus.

What is called Km is the concentration of substrate that gives half-maximal velocity. For orientation: kcat means the number of substrate molecules converted per active site and unit of time at saturation.

Tcp12 (Actinoplanes teichomyceticus), sequence (chain, as listed by the source): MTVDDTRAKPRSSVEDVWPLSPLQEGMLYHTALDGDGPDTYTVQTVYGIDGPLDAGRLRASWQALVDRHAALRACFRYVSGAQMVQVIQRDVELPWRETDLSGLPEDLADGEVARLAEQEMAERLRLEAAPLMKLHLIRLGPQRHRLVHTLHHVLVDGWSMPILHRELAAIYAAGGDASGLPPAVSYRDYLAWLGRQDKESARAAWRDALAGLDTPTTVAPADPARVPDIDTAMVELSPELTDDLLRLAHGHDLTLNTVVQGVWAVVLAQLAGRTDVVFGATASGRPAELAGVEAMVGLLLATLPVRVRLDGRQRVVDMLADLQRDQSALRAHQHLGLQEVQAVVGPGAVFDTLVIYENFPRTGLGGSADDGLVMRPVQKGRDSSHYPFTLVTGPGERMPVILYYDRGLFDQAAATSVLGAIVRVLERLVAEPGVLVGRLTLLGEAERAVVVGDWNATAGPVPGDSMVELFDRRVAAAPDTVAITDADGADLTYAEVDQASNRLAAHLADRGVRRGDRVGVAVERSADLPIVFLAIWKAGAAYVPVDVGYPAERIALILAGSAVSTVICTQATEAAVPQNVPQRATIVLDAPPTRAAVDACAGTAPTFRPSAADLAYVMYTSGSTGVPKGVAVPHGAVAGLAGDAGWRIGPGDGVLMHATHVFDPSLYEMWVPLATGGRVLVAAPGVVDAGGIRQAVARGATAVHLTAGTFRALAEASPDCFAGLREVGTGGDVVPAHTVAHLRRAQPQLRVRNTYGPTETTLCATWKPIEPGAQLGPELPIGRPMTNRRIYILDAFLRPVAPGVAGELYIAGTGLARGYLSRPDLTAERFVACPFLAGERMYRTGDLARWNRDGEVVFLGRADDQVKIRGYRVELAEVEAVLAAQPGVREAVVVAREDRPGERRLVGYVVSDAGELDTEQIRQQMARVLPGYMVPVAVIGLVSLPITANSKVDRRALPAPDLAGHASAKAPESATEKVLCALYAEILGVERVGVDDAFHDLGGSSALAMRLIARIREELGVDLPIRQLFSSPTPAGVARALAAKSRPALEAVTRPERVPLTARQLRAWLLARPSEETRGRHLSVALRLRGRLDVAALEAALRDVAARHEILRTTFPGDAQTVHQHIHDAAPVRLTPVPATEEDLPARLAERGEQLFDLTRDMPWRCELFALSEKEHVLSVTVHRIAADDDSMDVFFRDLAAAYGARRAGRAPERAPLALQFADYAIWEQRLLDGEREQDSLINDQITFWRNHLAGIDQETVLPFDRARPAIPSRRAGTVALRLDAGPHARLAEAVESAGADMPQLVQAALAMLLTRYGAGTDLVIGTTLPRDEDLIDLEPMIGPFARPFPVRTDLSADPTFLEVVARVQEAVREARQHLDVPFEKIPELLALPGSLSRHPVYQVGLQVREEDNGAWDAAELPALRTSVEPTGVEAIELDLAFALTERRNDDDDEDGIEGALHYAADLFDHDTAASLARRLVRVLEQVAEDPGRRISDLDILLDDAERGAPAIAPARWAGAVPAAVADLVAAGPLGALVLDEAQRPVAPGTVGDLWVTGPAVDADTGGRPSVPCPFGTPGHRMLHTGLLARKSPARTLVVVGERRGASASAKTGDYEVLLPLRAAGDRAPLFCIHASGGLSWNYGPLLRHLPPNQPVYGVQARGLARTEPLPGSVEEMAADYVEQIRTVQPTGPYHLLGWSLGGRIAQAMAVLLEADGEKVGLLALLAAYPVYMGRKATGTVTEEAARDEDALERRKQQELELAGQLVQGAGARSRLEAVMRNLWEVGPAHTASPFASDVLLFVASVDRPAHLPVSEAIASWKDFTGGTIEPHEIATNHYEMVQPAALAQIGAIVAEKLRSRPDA

Take Tcp12 (Actinoplanes teichomyceticus): the Km turned out to be 4 ± 0.1 µM and the catalytic constant (kcat) turned out to be 0.01867 ± 0.000167 s⁻¹.
